# Reference: publication doi:10.1101/2021.08.04.455045 (bioRxiv, 2021)
# T1: hUHRF1 tandem tudor domain, 10xHIS-TEV-TTD (aa 126-285) (human, UniProt Q96T88-1 126-285)
# T1 sequence (looked up): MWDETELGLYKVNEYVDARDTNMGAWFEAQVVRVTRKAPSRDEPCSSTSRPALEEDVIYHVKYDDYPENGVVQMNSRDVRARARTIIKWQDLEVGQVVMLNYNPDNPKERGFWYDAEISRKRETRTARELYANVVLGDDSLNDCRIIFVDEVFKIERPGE
# B1: hUHRF1 Linker 4 (aa 605-675)-6xHIS (domain or fragment, human, UniProt Q96T88-1 605-675, looked up)
# chain: MQYPEGYLEALANREREKENSKREEEEQQEGGFASPRTGKGKWKRKSAGGGPSRAGSPRRTSKKTKVEPYS
# Target: T1, hUHRF1 tandem tudor domain, …
# Assay: MST
binder,measurement,value
B1,binding result,binds
